One series has as its target T1, Lcc4A (Lentinula edodes, UniProt R9WT55).
T1 construct: full cDNA ORF (527 residues) in pPIC3.5K, secreted from Pichia pastoris GS115 and purified; signal peptide predicted
T1 sequence (R9WT55 18-527): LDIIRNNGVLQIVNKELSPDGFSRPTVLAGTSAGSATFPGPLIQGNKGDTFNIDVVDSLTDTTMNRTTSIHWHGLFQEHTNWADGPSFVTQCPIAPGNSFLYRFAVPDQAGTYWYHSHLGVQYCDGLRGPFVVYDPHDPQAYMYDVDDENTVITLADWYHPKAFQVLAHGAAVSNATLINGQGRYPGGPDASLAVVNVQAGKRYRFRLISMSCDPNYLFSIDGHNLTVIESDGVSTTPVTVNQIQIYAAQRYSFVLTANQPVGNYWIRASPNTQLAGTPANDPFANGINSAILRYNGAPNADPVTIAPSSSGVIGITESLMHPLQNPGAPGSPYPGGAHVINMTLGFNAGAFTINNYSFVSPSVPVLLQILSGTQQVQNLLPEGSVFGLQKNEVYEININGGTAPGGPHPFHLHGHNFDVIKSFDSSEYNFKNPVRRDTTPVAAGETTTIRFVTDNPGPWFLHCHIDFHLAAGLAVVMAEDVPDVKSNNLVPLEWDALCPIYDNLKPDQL
Put plainly: ABTS oxidation in presence of co-solvent. Format: biochemical. The settings on record: 1 mM ABTS, 1x McIlvaine buffer pH 4, 30 °C; co-solvent effect, non-specific. From the text:
ABTS oxidation in presence of co-solvent on Lcc4A

Another series has as its target T2, Lcc7 (Lentinula edodes, UniProt R9WS76).
T2 construct: full cDNA ORF (560 residues) in pPIC3.5K, secreted from Pichia pastoris GS115 and purified; signal peptide predicted
T2 sequence (R9WS76 30-560): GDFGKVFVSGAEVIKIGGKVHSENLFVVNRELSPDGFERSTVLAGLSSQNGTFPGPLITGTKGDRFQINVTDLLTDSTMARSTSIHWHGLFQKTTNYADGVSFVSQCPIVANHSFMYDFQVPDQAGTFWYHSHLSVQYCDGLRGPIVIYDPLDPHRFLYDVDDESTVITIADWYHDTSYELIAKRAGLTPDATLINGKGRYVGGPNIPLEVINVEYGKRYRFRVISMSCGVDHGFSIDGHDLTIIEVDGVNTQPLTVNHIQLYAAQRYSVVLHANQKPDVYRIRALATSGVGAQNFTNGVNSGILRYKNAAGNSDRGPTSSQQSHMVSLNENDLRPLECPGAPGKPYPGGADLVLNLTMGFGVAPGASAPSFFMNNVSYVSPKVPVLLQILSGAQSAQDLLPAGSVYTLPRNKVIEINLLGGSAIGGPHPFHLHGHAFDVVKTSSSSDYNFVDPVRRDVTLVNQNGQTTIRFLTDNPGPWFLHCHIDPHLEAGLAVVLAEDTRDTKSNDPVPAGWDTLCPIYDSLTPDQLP
The series can be described thus: ABTS oxidation in presence of co-solvent. The settings on record: 1 mM ABTS, 1x McIlvaine buffer pH 4, 30 °C; co-solvent effect, non-specific. Format: biochemical. An excerpt: ABTS oxidation in presence of co-solvent on Lcc7

Another series deals with T3, Lcc5 (Lentinula edodes, UniProt R9WU11).
T3 construct: full cDNA ORF (515 residues) in pPIC3.5K, secreted from Pichia pastoris GS115 and purified; signal peptide predicted
T3 sequence (R9WU11 22-515): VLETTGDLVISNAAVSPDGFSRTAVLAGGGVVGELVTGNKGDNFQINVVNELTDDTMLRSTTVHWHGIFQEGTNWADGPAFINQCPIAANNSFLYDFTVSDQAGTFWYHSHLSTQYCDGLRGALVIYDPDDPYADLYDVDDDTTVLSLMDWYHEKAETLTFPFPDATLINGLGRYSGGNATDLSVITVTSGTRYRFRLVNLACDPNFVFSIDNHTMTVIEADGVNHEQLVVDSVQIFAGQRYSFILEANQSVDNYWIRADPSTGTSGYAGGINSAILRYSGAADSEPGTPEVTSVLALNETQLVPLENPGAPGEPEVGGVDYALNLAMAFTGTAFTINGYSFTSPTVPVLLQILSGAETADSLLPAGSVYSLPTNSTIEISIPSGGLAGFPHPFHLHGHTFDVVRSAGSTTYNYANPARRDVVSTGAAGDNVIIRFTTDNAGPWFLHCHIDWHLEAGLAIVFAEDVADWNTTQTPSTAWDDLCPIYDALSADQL
The series can be described thus: ABTS oxidation in presence of co-solvent. The series is classed as biochemical. The settings on record: 1 mM ABTS, 1x McIlvaine buffer pH 4, 30 °C; co-solvent effect, non-specific. An excerpt:
ABTS oxidation in presence of co-solvent on Lcc5

Substrate in series [1]: Oc1ccccc1O
The series can be described thus: spectrophotometric oxidation assay. The series is classed as biochemical, Lentinula edodes. The settings on record: 1x McIlvaine buffer pH 4, 30 °C. From the text:
(§1) spectrophotometric oxidation assay on Lcc4A

Substrate in series [2]: COc1cccc(OC)c1O
Put plainly: spectrophotometric oxidation assay. The series is classed as biochemical, Lentinula edodes. The settings on record: 1x McIlvaine buffer pH 4, 30 °C.
From the text: as §1

Substrate in series [3]: N[C@@H](Cc1ccc(O)c(O)c1)C(=O)O
Put plainly: spectrophotometric oxidation assay. Format: biochemical, Lentinula edodes. The conditions noted are these: 1x McIlvaine buffer pH 4, 30 °C.
From the text: as §1

Substrate in series [4]: COc1ccccc1O
Put plainly: purified protein. The settings on record: 1x McIlvaine buffer pH 4, 30 °C.

Substrate in series [5]: CCn1c(=NN=c2sc3cc(S(=O)(=O)O)ccc3n2CC)sc2cc(S(=O)(=O)O)ccc21
Put plainly: purified protein. The series is classed as biochemical, Lentinula edodes. The conditions noted are these: 1x McIlvaine buffer pH 4, 30 °C.

Substrate in series [6]: Oc1ccccc1O
Put plainly: spectrophotometric oxidation assay. The conditions noted are these: 1x McIlvaine buffer pH 4, 30 °C. Format: biochemical, Lentinula edodes. An excerpt: (§2) spectrophotometric oxidation assay on Lcc5
The source holds these as a separate data set.

Substrate in series [7]: COc1cccc(OC)c1O
The series can be described thus: spectrophotometric oxidation assay. Format: biochemical, Lentinula edodes. The conditions noted are these: 1x McIlvaine buffer pH 4, 30 °C.
From the text: as §2
This is another data set of the same source.

Substrate in series [8]: N[C@@H](Cc1ccc(O)c(O)c1)C(=O)O
Put plainly: spectrophotometric oxidation assay. The series is classed as biochemical, Lentinula edodes. The settings on record: 1x McIlvaine buffer pH 4, 30 °C.
From the text: as §2
This is another data set of the same source.

Substrate in series [9]: Oc1ccccc1O
The series can be described thus: spectrophotometric oxidation assay. Format: biochemical, Lentinula edodes. The conditions noted are these: 1x McIlvaine buffer pH 4, 30 °C. From the text:
(§3) spectrophotometric oxidation assay on Lcc7
The source holds these as a separate data set.

Substrate in series [10]: COc1cccc(OC)c1O
Put plainly: spectrophotometric oxidation assay. The settings on record: 1x McIlvaine buffer pH 4, 30 °C. The series is classed as biochemical, Lentinula edodes.
From the text: as §3
The source holds these as a separate data set.

As to `CO` [MeOH], on Lcc4A, the “IC50 ^d (v/v %) / MeOH” value was found to be 28 v/v %.
Regarding `CC#N` [ACN], the entries for the “IC50 ^d (v/v %) / ACN” value on Lcc4A, at Lcc7 and on Lcc5 were 30 v/v %, 17 v/v % and 18 v/v %, respectively.
`CCO` [EtOH]: the “IC50 ^d (v/v %) / EtOH” value at Lcc7 worked out at 22 v/v %. On Lcc5, the “IC50 ^d (v/v %) / ACN” value is 18 v/v %.

B1: Lcc4A (Lentinula edodes) (protein)
chain: LDIIRNNGVLQIVNKELSPDGFSRPTVLAGTSAGSATFPGPLIQGNKGDTFNIDVVDSLTDTTMNRTTSIHWHGLFQEHTNWADGPSFVTQCPIAPGNSFLYRFAVPDQAGTYWYHSHLGVQYCDGLRGPFVVYDPHDPQAYMYDVDDENTVITLADWYHPKAFQVLAHGAAVSNATLINGQGRYPGGPDASLAVVNVQAGKRYRFRLISMSCDPNYLFSIDGHNLTVIESDGVSTTPVTVNQIQIYAAQRYSFVLTANQPVGNYWIRASPNTQLAGTPANDPFANGINSAILRYNGAPNADPVTIAPSSSGVIGITESLMHPLQNPGAPGSPYPGGAHVINMTLGFNAGAFTINNYSFVSPSVPVLLQILSGTQQVQNLLPEGSVFGLQKNEVYEININGGTAPGGPHPFHLHGHNFDVIKSFDSSEYNFKNPVRRDTTPVAAGETTTIRFVTDNPGPWFLHCHIDFHLAAGLAVVMAEDVPDVKSNNLVPLEWDALCPIYDNLKPDQL
notes: full cDNA ORF (527 residues) in pPIC3.5K, secreted from Pichia pastoris GS115 and purified; signal peptide predicted
As to B1, the Km (commonly the concentration of substrate that gives half-maximal velocity) worked out at 255 ± 76 µM in series [1]; 26.0 ± 2.4 µM in series [2]; 1040 ± 150 µM in series [3]; 648 ± 105 µM in “purified protein [4]”; 11.2 ± 0.9 µM in “purified protein [5]”. The Vmax (as a rule, the top rate of the reaction or transport when substrate is in excess) is 0.91 µmol/min/mg in series [1]; 0.26 µmol/min/mg in series [2]; 1.07 µmol/min/mg in [3]; 0.16 µmol/min/mg in “purified protein [4]”; 0.61 µmol/min/mg in “purified protein [5]”. Moreover, the Vmax/Km in series [1] is 3720 µL/min/mg; in [2] it was 10000 µL/min/mg; in series [3], 1030 µL/min/mg; in “purified protein [4]”, 246 µL/min/mg; in “purified protein [5]”, 54400 µL/min/mg.

B2: Lcc5 (Lentinula edodes) (protein)
chain: VLETTGDLVISNAAVSPDGFSRTAVLAGGGVVGELVTGNKGDNFQINVVNELTDDTMLRSTTVHWHGIFQEGTNWADGPAFINQCPIAANNSFLYDFTVSDQAGTFWYHSHLSTQYCDGLRGALVIYDPDDPYADLYDVDDDTTVLSLMDWYHEKAETLTFPFPDATLINGLGRYSGGNATDLSVITVTSGTRYRFRLVNLACDPNFVFSIDNHTMTVIEADGVNHEQLVVDSVQIFAGQRYSFILEANQSVDNYWIRADPSTGTSGYAGGINSAILRYSGAADSEPGTPEVTSVLALNETQLVPLENPGAPGEPEVGGVDYALNLAMAFTGTAFTINGYSFTSPTVPVLLQILSGAETADSLLPAGSVYSLPTNSTIEISIPSGGLAGFPHPFHLHGHTFDVVRSAGSTTYNYANPARRDVVSTGAAGDNVIIRFTTDNAGPWFLHCHIDWHLEAGLAIVFAEDVADWNTTQTPSTAWDDLCPIYDALSADQL
notes: full cDNA ORF (515 residues) in pPIC3.5K, secreted from Pichia pastoris GS115 and purified; signal peptide predicted
For B2, the Km in the series “purified protein [4]” turned out to be 1270 ± 90 µM; in the series “purified protein [5]” it was 325 ± 47 µM; in [6], 6280 ± 680 µM; in series [7] it was 113 ± 8 µM; in [8], 10500 ± 700 µM. In addition, the Vmax came out at 0.32 µmol/min/mg in “purified protein [4]”; 2.26 µmol/min/mg in “purified protein [5]”; 2.65 µmol/min/mg in [6]; 0.6 µmol/min/mg in series [7]; 1.66 µmol/min/mg in series [8]. Besides, the Vmax/Km in the series “purified protein [4]” came out at 257 µL/min/mg; in the series “purified protein [5]” it was 6940 µL/min/mg; in series [6] it was 424 µL/min/mg; in [7], 5300 µL/min/mg; in series [8], 158 µL/min/mg.

B3: Lcc7 (Lentinula edodes) (protein)
chain: GDFGKVFVSGAEVIKIGGKVHSENLFVVNRELSPDGFERSTVLAGLSSQNGTFPGPLITGTKGDRFQINVTDLLTDSTMARSTSIHWHGLFQKTTNYADGVSFVSQCPIVANHSFMYDFQVPDQAGTFWYHSHLSVQYCDGLRGPIVIYDPLDPHRFLYDVDDESTVITIADWYHDTSYELIAKRAGLTPDATLINGKGRYVGGPNIPLEVINVEYGKRYRFRVISMSCGVDHGFSIDGHDLTIIEVDGVNTQPLTVNHIQLYAAQRYSVVLHANQKPDVYRIRALATSGVGAQNFTNGVNSGILRYKNAAGNSDRGPTSSQQSHMVSLNENDLRPLECPGAPGKPYPGGADLVLNLTMGFGVAPGASAPSFFMNNVSYVSPKVPVLLQILSGAQSAQDLLPAGSVYTLPRNKVIEINLLGGSAIGGPHPFHLHGHAFDVVKTSSSSDYNFVDPVRRDVTLVNQNGQTTIRFLTDNPGPWFLHCHIDPHLEAGLAVVLAEDTRDTKSNDPVPAGWDTLCPIYDSLTPDQLP
notes: full cDNA ORF (560 residues) in pPIC3.5K, secreted from Pichia pastoris GS115 and purified; signal peptide predicted
In the case of B3, the Km in the series “purified protein [4]” stood at 8630 ± 2120 µM; in “purified protein [5]” it was 36.3 ± 1.9 µM; in [9], 38800 ± 5300 µM; in [10], 12000 ± 1000 µM. For the same molecule, the Vmax in “purified protein [4]” was determined as 0.18 µmol/min/mg; in “purified protein [5]”, 19.7 µmol/min/mg; in [9] it was 0.53 µmol/min/mg; in [10], 1.73 µmol/min/mg. The Vmax/Km worked out at 21.4 µL/min/mg in “purified protein [4]”, 543000 µL/min/mg in “purified protein [5]”, 13.8 µL/min/mg in series [9] and 144 µL/min/mg in series [10].
